Source: patent US20210395394A1
Where a chain is given by its changes, count along the chain named.

B1: WT 1-6 (antibody, mouse IgG2b, kappa, V domains shown)
VH: QVQLQQPGAELVRPGASVKLSCKASGTSFTNYFMNWVKQRPGQGLEWIGMINPSDSETRLNQKFKDKATLTVDKSSSTAYMQLSSLTAEDSAVYYCARSGDFYTYYWDYWGQGTTLTVSS
VL: DIQLTQSPASLSASVGETVTITCRGSGNIHNYIAWYQQKQGKSPQLLVYNAKTVADGVPSRFSGSGSGTQYSLKINSLQPEDFGSYYCQSFWSSYTFGGGTKLEIKR
B2: WT 1-7 (antibody, mouse IgG2b, kappa, V domains shown)
VH: B1 VH with T27S, L60V, D101E, Y105S
VL: B1 VL with S26T, I29V, V54L, S90Y
B3: WT 1-8 (antibody, mouse IgG2b, kappa, V domains shown)
VH: B1 VH with L60V, R98K, D101E, Y105S
VL: B1 VL with I29V, V54I
B4: WT 1-9 (antibody, mouse IgG2b, kappa, V domains shown)
VH: B1 VH with T27S, D55E, L60I, R98K, D101E
VL: B1 VL with S26T, I29V, K52R, V54L, S90T
B5: Mutation 1-1 (antibody, mouse IgG2b, kappa, V domains shown)
VH: B1 VH with T27Y, F33W, N52H, D55E, R98K, W107F
VL: B1 VL with S26T, I29L, I33L, K52R, S90Y, S94T
B6: Mutation 1-2 (antibody, mouse IgG2b, kappa, V domains shown)
VH: B1 VH with F33W, N52H, D55E, L60V, R98K, Y105T, W107F
VL: B1 VL with I29V, I33L, K52R, V54L, S90T, S94T
B7: Mutation 1-3 (antibody, mouse IgG2b, kappa, V domains shown)
VH: B1 VH with F33W, N52H, L60I, R98K, D101E, Y105S, W107F
VL: B1 VL with S26T, I29V, I33L, V54I, S90Y, S94T
B8: Mutation 1-4 (antibody, mouse IgG2b, kappa, V domains shown)
VH: B1 VH with T27Y, F33W, N52H, R98K, D101E, W107F
VL: B1 VL with I33L, S90T, S94T
B9: Mutation 1-5 (antibody, mouse IgG2b, kappa, V domains shown)
VH: B1 VH with T27S, F33W, N52H, L60V, R98K, D101E, Y105T, W107F
VL: B1 VL with S26T, I33L, V54L, S94T
B10: Mutation 1-6 (antibody, mouse IgG2b, kappa, V domains shown)
VH: B1 VH with F33W, N52H, L60I, Y105S, W107F
VL: B1 VL with S26T, I33L, V54L, S90T, S94T
B11: Mutation 1-7 (antibody, mouse IgG2b, kappa, V domains shown)
VH: B1 VH with T27S, F33W, N52H, W107F
VL: B1 VL with I33L, S94T
B12: Mutation 1-8 (antibody, mouse IgG2b, kappa, V domains shown)
VH: B1 VH with T27Y, F33W, N52H, L60V, Y105T, W107F
VL: B1 VL with S26T, I29V, I33L, V54I, S90Y, S94T
B13: Mutation 1-9 (antibody, mouse IgG2b, kappa, V domains shown)
VH: B1 VH with T27S, F33W, N52H, D55E, L60I, D101E, Y105S, W107F
VL: B1 VL with I29V, I33L, K52R, V54L, S94T
B14: Mutation 1-10 (antibody, mouse IgG2b, kappa, V domains shown)
VH: B1 VH with F33W, N52H, D55E, D101E, W107F
VL: B1 VL with S26T, I29L, I33L, K52R, S90Y, S94T
B15: Mutation 1-11 (antibody, mouse IgG2b, kappa, V domains shown)
VH: B1 VH with T27Y, F33W, N52H, D55E, L60V, D101E, Y105T, W107F
VL: B1 VL with I29L, I33L, K52R, V54I, S90T, S94T
B16: Mutation 1-12 (antibody, mouse IgG2b, kappa, V domains shown)
VH: B1 VH with T27Y, F33W, N52H, L60I, R98K, Y105S, W107F
VL: B1 VL with I29L, I33L, S90Y, S94T
B17: Mutation 1-13 (antibody, mouse IgG2b, kappa, V domains shown)
VH: B1 VH with F33W, N52H, R98K, W107F
VL: B1 VL with S26T, I29L, I33L, V54L, S90T, S94T
B18: Mutation 1-14 (antibody, mouse IgG2b, kappa, V domains shown)
VH: B1 VH with T27S, F33W, N52H, L60V, R98K, Y105T, W107F
VL: B1 VL with I29V, I33L, V54I, S94T
B19: Mutation 1-15 (antibody, mouse IgG2b, kappa, V domains shown)
VH: B1 VH with T27S, F33W, N52H, D55E, L60I, R98K, D101E, Y105S, W107F
VL: B1 VL with S26T, I29V, I33L, K52R, S90T, S94T
B20: Mutation 1-16 (antibody, mouse IgG2b, kappa, V domains shown)
VH: B1 VH with T27Y, F33W, N52H, D55E, R98K, D101E, W107F
VL: B1 VL with I33L, K52R, V54L, S94T
B21: Mutation 1-17 (antibody, mouse IgG2b, kappa, V domains shown)
VH: B1 VH with F33W, N52H, D55E, L60V, R98K, D101E, Y105T, W107F
VL: B1 VL with S26T, I33L, K52R, S90T, S94T
B22: Mutation 1-18 (antibody, mouse IgG2b, kappa, V domains shown)
VH: B1 VH with F33W, N52H, L60I, Y105S, W107F
VL: B1 VL with S26T, I33L, V54I, S94T
B23: Mutation 1-19 (antibody, mouse IgG2b, kappa, V domains shown)
VH: B1 VH with T27Y, F33W, N52H, W107F
VL: B1 VL with I33L, V54L, S90Y, S94T
B24: Mutation 1-20 (antibody, mouse IgG2b, kappa, V domains shown)
VH: B1 VH with T27S, F33W, N52H, L60V, Y105T, W107F
VL: B1 VL with S26T, I29V, I33L, S90T, S94T
B25: Mutation 1-21 (antibody, mouse IgG2b, kappa, V domains shown)
VH: B1 VH with F33W, N52H, D55E, L60I, D101E, Y105S, W107F
VL: B1 VL with I29V, I33L, K52R, V54I, S90Y, S94T
B26: Mutation 1-22 (antibody, mouse IgG2b, kappa, V domains shown)
VH: B1 VH with T27S, F33W, N52H, D55E, D101E, W107F
VL: B1 VL with S26T, I29L, I33L, K52R, V54L, S90T, S94T
B27: Mutation 1-23 (antibody, mouse IgG2b, kappa, V domains shown)
VH: B1 VH with T27Y, F33W, N52H, D55E, L60V, D101E, Y105T, W107F
VL: B1 VL with I29L, I33L, K52R, S94T
B28: Mutation 1-24 (antibody, mouse IgG2b, kappa, V domains shown)
VH: B1 VH with T27S, F33W, N52H, L60I, R98K, Y105S, W107F
VL: B1 VL with I29L, I33L, V54L, S90T, S94T
B29: Mutation 1-25 (antibody, mouse IgG2b, kappa, V domains shown)
VH: B1 VH with F33W, N52H, R98K, W107F
VL: B1 VL with S26T, I29L, I33L, V54I, S94T
B30: Mutation 1-26 (antibody, mouse IgG2b, kappa, V domains shown)
VH: B1 VH with T27Y, F33W, N52H, L60V, R98K, Y105T, W107F
VL: B1 VL with I29V, I33L, S90Y, S94T
B31: Mutation 1-27 (antibody, mouse IgG2b, kappa, V domains shown)
VH: B1 VH with T27Y, F33W, N52H, D55E, L60I, R98K, D101E, Y105S, W107F
VL: B1 VL with S26T, I29V, I33L, K52R, V54L, S94T
B32: Mutation 1-28 (antibody, mouse IgG2b, kappa, V domains shown)
VH: B1 VH with F33W, N52H, D55E, R98K, D101E, W107F
VL: B1 VL with I33L, K52R, V54I, S90Y, S94T
B33: Mutation 1-29 (antibody, mouse IgG2b, kappa, V domains shown)
VH: B1 VH with T27S, F33W, N52H, D55E, L60V, R98K, D101E, Y105T, W107F
VL: B1 VL with S26T, I33L, K52R, S90T, S94T
B34: Mutation 1-30 (antibody, mouse IgG2b, kappa, V domains shown)
VH: B1 VH with T27S, F33W, N52H, L60I, Y105S, W107F
VL: B1 VL with S26T, I33L, V54L, S90Y, S94T
B35: Mutation 1-31 (antibody, mouse IgG2b, kappa, V domains shown)
VH: B1 VH with T27Y, F33W, N52H, W107F
VL: B1 VL with I33L, S90T, S94T
B36: Mutation 1-32 (antibody, mouse IgG2b, kappa, V domains shown)
VH: B1 VH with F33W, N52H, L60V, Y105T, W107F
VL: B1 VL with S26T, I29V, I33L, V54I, S94T
B37: Mutation 1-33 (antibody, mouse IgG2b, kappa, V domains shown)
VH: B1 VH with F33W, N52H, D55E, L60I, D101E, Y105S, W107F
VL: B1 VL with I29V, I33L, K52R, V54L, S90T, S94T
B38: Mutation 1-34 (antibody, mouse IgG2b, kappa, V domains shown)
VH: B1 VH with T27Y, F33W, N52H, D55E, D101E, W107F
VL: B1 VL with S26T, I29L, I33L, K52R, S94T
B39: Mutation 1-35 (antibody, mouse IgG2b, kappa, V domains shown)
VH: B1 VH with T27S, F33W, N52H, D55E, L60V, D101E, Y105T, W107F
VL: B1 VL with I29L, I33L, K52R, V54I, S90Y, S94T
B40: Mutation 1-36 (antibody, mouse IgG2b, kappa, V domains shown)
VH: B1 VH with F33W, N52H, L60I, R98K, Y105S, W107F
VL: B1 VL with I29L, I33L, S94T
B41: Mutation 1-37 (antibody, mouse IgG2b, kappa, V domains shown)
VH: B1 VH with T27S, F33W, N52H, R98K, W107F
VL: B1 VL with S26T, I29L, I33L, V54I, S90Y, S94T
B42: Mutation 1-38 (antibody, mouse IgG2b, kappa, V domains shown)
VH: B1 VH with T27Y, F33W, N52H, L60V, R98K, Y105T, W107F
VL: B1 VL with I29V, I33L, V54L, S90T, S94T
B43: Mutation 1-39 (antibody, mouse IgG2b, kappa, V domains shown)
VH: B1 VH with T27S, F33W, N52H, D55E, L60I, R98K, D101E, Y105S, W107F
VL: B1 VL with S26T, I29V, I33L, K52R, S90Y, S94T
B44: Mutation 1-40 (antibody, mouse IgG2b, kappa, V domains shown)
VH: B1 VH with F33W, N52H, D55E, R98K, D101E, W107F
VL: B1 VL with I33L, K52R, V54I, S90T, S94T
B45: Mutation 1-41 (antibody, mouse IgG2b, kappa, V domains shown)
VH: B1 VH with T27Y, F33W, N52H, D55E, L60V, R98K, D101E, Y105T, W107F
VL: B1 VL with S26T, I33L, K52R, V54L, S94T
B46: Mutation 1-42 (antibody, mouse IgG2b, kappa, V domains shown)
VH: B1 VH with T27Y, F33W, N52H, L60I, Y105S, W107F
VL: B1 VL with S26T, I33L, V54I, S90T, S94T
B47: Mutation 1-43 (antibody, mouse IgG2b, kappa, V domains shown)
VH: B1 VH with F33W, N52H, W107F
VL: B1 VL with I33L, S94T
B48: Mutation 1-44 (antibody, mouse IgG2b, kappa, V domains shown)
VH: B1 VH with T27S, F33W, N52H, L60V, D101E, Y105S, W107F
VL: B1 VL with S26T, I29V, I33L, V54L, S90Y, S94T
B49: Mutation 1-45 (antibody, mouse IgG2b, kappa, V domains shown)
VH: B1 VH with T27Y, F33W, N52H, D55E, L60I, D101E, W107F
VL: B1 VL with I29V, I33L, K52R, V54I, S94T

Molecular target: Pan-species-specific antigen Plasmodium Lactate DeHydrogenase (Pan-PLDH) protein
Test: indirect ELISA at four coating concentrations, KD calculated from half-maximal OD

Row | Binder | Kd [nM]
1 | B1 | 1.56
2 | B2 | 0.757
3 | B3 | 1.36
4 | B4 | 0.621
5 | B5 | 0.521
6 | B6 | 0.338
7 | B7 | 0.098
8 | B8 | 0.596
9 | B9 | 0.532
10 | B10 | 0.664
11 | B11 | 0.208
12 | B12 | 0.481
13 | B13 | 0.616
14 | B14 | 0.525
15 | B15 | 0.465
16 | B16 | 0.118
17 | B17 | 0.531
18 | B18 | 0.488
19 | B19 | 0.47
20 | B20 | 0.411
21 | B21 | 0.37
22 | B22 | 0.567
23 | B23 | 0.329
24 | B24 | 0.204
25 | B25 | 0.655

Row | Binder | Kd [nM]
26 | B26 | 0.378
27 | B27 | 0.319
28 | B28 | 0.402
29 | B29 | 0.493
30 | B30 | 0.374
31 | B31 | 0.427
32 | B32 | 0.759
33 | B33 | 0.411
34 | B34 | 0.198
35 | B35 | 0.514
36 | B36 | 0.329
37 | B37 | 0.372
38 | B38 | 0.565
39 | B39 | 0.424
40 | B40 | 0.518
41 | B41 | 0.52
42 | B42 | 0.613
43 | B43 | 0.55
44 | B44 | 0.439
45 | B45 | 0.743
46 | B46 | 0.545
47 | B47 | 0.53
48 | B48 | 0.318
49 | B49 | 0.415
